The values below come from the supplement of paper PMC11780869.

The test system of the data set is Bacillus subtilis. Nature of the data set: cleaved RNA product abundance (RNA/gDNA barcode ratio) relative to median wild-type variant (ratio to wild type); higher = more accumulation of the downstream cleavage product. The conditions noted are these: cleavage site: cggR-gapA (positions -7 to +36 mutated). The method, boiled down:
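The B. subtilis chromosome carried reporter mRNAs, truncated aprE or tetM, containing barcoded RNase Y cleavage-site windows mutagenized using oligos with a 9% error rate. After growth in LB at 37°C from OD600 0.0003 to 0.3, cleaved RNA was gel-selected, reverse transcribed and barcode-sequenced next to genomic DNA barcodes, with UMI collapsing. Each construct's RNA:gDNA barcode ratio was scaled to the median construct with the unmutated site. That scaled ratio is reported as cleaved product abundance.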

Setting [1] is: experiment (reporter, strain, medium): exp 4a: truncated aprE reporter, strain BJT201 with 2% xylose (RNase J1 expressed).
[2] abbreviates: experiment (reporter, strain, medium): exp 2b: truncated aprE reporter, strain BJT200.

Consider “ACAGACGAAGGAGCCGCAAAGAAGTTATTAAGGAATGAATAATCCCTCAATATAAAGATCTCTCACTTATTTAAA”, for which the “cleaved RNA product abundance” value under setting [1] was found to be 0.0766. As to “ACAGACGAAGGAGCCGCAAAGAAGTTATTAAGGAATGAATAATCCCTCAATATAAATAACTCTCACTTATTTAAA”, the “cleaved RNA product abundance” value under setting [1] is 0.21.

Take “ACAGACGAAGGAGCCGCAAAGAAGTTATTAAGGAATGAATAATCCCTCAATATAAATACCTCTCACTTATTTAAA”: the “cleaved RNA product abundance” value under setting [2] worked out at 0.0997. Regarding “ACAGACGAAGGAGCCGCAAAGAAGTTATTAAGGAATGAATAATCCCTCAATATAAATAGCTCTCACTTATTTAAA”, the “cleaved RNA product abundance” value runs as follows: under setting [2], 0.108; under setting [1], 0.095. Regarding “ACAGACGAAGGAGCCGCAAAGAAGTTATTAAGGAATGAATAATCCCTCAATATAAATATCTCTCACTTATTTAAA”, the “cleaved RNA product abundance” value under setting [2] stood at 0.109; the “cleaved RNA product abundance” value under setting [1] stood at 0.132; the “cleaved RNA product abundance” value (experiment (reporter, strain, medium): exp 6: tetM reporter, strain 168) came out at 0.126.

On to “ACAGACGAAGGAGCCGCAAAGAAGTTATTAAGGAATGAATAATCCCTCAATATAAATATTTCTCACTTATTTAAA”, for which the “cleaved RNA product abundance” value under setting [1] turned out to be 0.136. Regarding “ACAGACGAAGGAGCCGCAAAGAAGTTATTAAGGAATGAATAATCCCTCAATATAAATTTCTCTCACTTATTTAAA”, the “cleaved RNA product abundance” value under setting [2] came out at 0.114 and the “cleaved RNA product abundance” value under setting [1] is 0.142. Regarding “ACAGACGAAGGAGCCGCAAAGAAGTTATTAAGGAATGAATAATCCCTCAATATAAGTATCTCTCACTTATTTAAA”, the “cleaved RNA product abundance” value under setting [1] came out at 0.0312.

As to “ACAGACGAAGGAGCCGCAAAGAAGTTATTAAGGAATGAATAATCCCTCAATATAATTATCTCTCACTTATTTAAA”, under setting [1], the “cleaved RNA product abundance” value came out at 0.117.

Regarding “ACAGACGAAGGAGCCGCAAAGAAGTTATTAAGGAATGAATAATCCCTCAATATACATATCTCTCACTTATTTAAA”, the “cleaved RNA product abundance” value under setting [1] came to 0.118. Regarding “ACAGACGAAGGAGCCGCAAAGAAGTTATTAAGGAATGAATAATCCCTCAATATAGATATCTCTCACTTATTTAAA”, the “cleaved RNA product abundance” value under setting [1] was found to be 0.101. Consider “ACAGACGAAGGAGCCGCAAAGAAGTTATTAAGGAATGAATAATCCCTCAATATATATATCTCTCACTTATTTAAA”, for which the “cleaved RNA product abundance” value reads like this: under setting [2], 0.0862; under setting [1], 0.149. Regarding “ACAGACGAAGGAGCCGCAAAGAAGTTATTAAGGAATGAATAATCCCTCAATATCAATATCTCTCACTTATTTAAA”, the “cleaved RNA product abundance” value under setting [1] was 0.0389. Same read-out and setting: then “ACAGACGAAGGAGCCGCAAAGAAGTTATTAAGGAATGAATAATCCCTCAATCTAAATATCTCTCACTTATTTAAA”, with 0.0695.

For the sequence “ACAGACGAAGGAGCCGCAAAGAAGTTATTAAGGAATGAATAATCCCTCAATTTAAATATCTCTCACTTATTTAAA”, the “cleaved RNA product abundance” value reads like this: under setting [2], 0.0901; under setting [1], 0.0591. Take “ACAGACGAAGGAGCCGCAAAGAAGTTATTAAGGAATGAATAATCCCTCACTATAAATATCTCTCACTTATTTAAA”: the “cleaved RNA product abundance” value under setting [2] turned out to be 0.0964. In the case of “ACAGACGAAGGAGCCGCAAAGAAGTTATTAAGGAATGAATAATCCCTCAGTATAAATATCTCTCACTTATTTAAA”, the “cleaved RNA product abundance” value under setting [1] is 0.15.

Turning to “ACAGACGAAGGAGCCGCAAAGAAGTTATTAAGGAATGAATAATCCCTCATTATAAATATCTCTCACTTATTTAAA”, the “cleaved RNA product abundance” value under setting [2] is 0.102 and the “cleaved RNA product abundance” value under setting [1] stood at 0.0579. With “ACAGACGAAGGAGCCGCAAAGAAGTTATTAAGGAATGAATAATCCCTCCATATAAATATCTCTCACTTATTTAAA”, under setting [1], the “cleaved RNA product abundance” value was 0.0857. With “ACAGACGAAGGAGCCGCAAAGAAGTTATTAAGGAATGAATAATCCCTCTATATAAATATCTCTCACTTATTTAAA”, the “cleaved RNA product abundance” value reads like this: under setting [2], 0.12; under setting [1], 0.119.

Regarding “ACAGACGAAGGAGCCGCAAAGAAGTTATTAAGGAATGAATAATCCCTGAATATAAATATCTCTCACTTATTTAAA”, the “cleaved RNA product abundance” value under setting [1] stood at 0.0984. Consider “ACAGACGAAGGAGCCGCAAAGAAGTTATTAAGGAATGAATAATCCCTTAATATAAATATCTCTCACTTATTTAAA”, for which the “cleaved RNA product abundance” value runs as follows: under setting [2], 0.68; under setting [1], 0.588. For “ACAGACGAAGGAGCCGCAAAGAAGTTATTAAGGAATGAATAATCCGTCAATATAAATATCTCTCACTTATTTAAA”, in that order: 0.0733 and 0.0653. Taken in the same sequence, the figures for “ACAGACGAAGGAGCCGCAAAGAAGTTATTAAGGAATGAATAATCCTTCAATATAAATATCTCTCACTTATTTAAA” were 0.148 and 0.265. Turning to “ACAGACGAAGGAGCCGCAAAGAAGTTATTAAGGAATGAATAATCGCTCAATATAAATATCTCTCACTTATTTAAA”, the “cleaved RNA product abundance” value under setting [1] is 0.0645. “ACAGACGAAGGAGCCGCAAAGAAGTTATTAAGGAATGAATAATCTCTCAATATAAATATCTCTCACTTATTTAAA”: the “cleaved RNA product abundance” value is, setting by setting: under setting [2], 0.0991; under setting [1], 0.155. For “ACAGACGAAGGAGCCGCAAAGAAGTTATTAAGGAATGAATAATGCCTCAATATAAATATCTCTCACTTATTTAAA”, the “cleaved RNA product abundance” value under setting [1] stood at 0.0706.

With “ACAGACGAAGGAGCCGCAAAGAAGTTATTAAGGAATGAATAATTCCTCAATATAAATATCTCTCACTTATTTAAA”, the “cleaved RNA product abundance” value is, setting by setting: under setting [2], 0.756; under setting [1], 0.872. For “ACAGACGAAGGAGCCGCAAAGAAGTTATTAAGGAATGAATACTCCCTCAATATAAATATCTCTCACTTATTTAAA”, in that order: 0.116 and 0.106.

As for “ACAGACGAAGGAGCCGCAAAGAAGTTATTAAGGAATGAATAGTCCCTCAATATAAATATCTCTCACTTATTTAAA”, the “cleaved RNA product abundance” value amounted to 0.101 under setting [2] and 0.114 under setting [1].

As to “ACAGACGAAGGAGCCGCAAAGAAGTTATTAAGGAATGAATATTCCCTCAATATAAATATCTCTCACTTATTTAAA”, the “cleaved RNA product abundance” value under setting [2] was found to be 0.178 and the “cleaved RNA product abundance” value under setting [1] is 0.279. As to “ACAGACGAAGGAGCCGCAAAGAAGTTATTAAGGAATGAATCATCCCTCAATATAAATATCTCTCACTTATTTAAA”, the “cleaved RNA product abundance” value under setting [1] stood at 0.151. Still for that read-out and setting: under “ACAGACGAAGGAGCCGCAAAGAAGTTATTAAGGAATGAATGATCCCTCAATATAAATATCTCTCACTTATTTAAA” stands 0.0629; under “ACAGACGAAGGAGCCGCAAAGAAGTTATTAAGGAATGAATTATCCCTCAATATAAATATCTCTCACTTATTTAAA”, 0.0807; under “ACAGACGAAGGAGCCGCAAAGAAGTTATTAAGGAATGACTAATCCCTCAATATAAATATCTCTCACTTATTTAAA”, 0.103. On to “ACAGACGAAGGAGCCGCAAAGAAGTTATTAAGGAATGAGTAATCCCTCAATATAAATATCTCTCACTTATTTAAA”, for which the “cleaved RNA product abundance” value was determined as 0.119 under setting [2] and 0.131 under setting [1]. Taken in the same sequence, the figures for “ACAGACGAAGGAGCCGCAAAGAAGTTATTAAGGAATGATTAATCCCTCAATATAAATATCTCTCACTTATTTAAA” were 0.115 and 0.11. Taken in the same sequence, the figures for “ACAGACGAAGGAGCCGCAAAGAAGTTATTAAGGAATGTATAATCCCTCAATATAAATATCTCTCACTTATTTAAA” were 0.104 and 0.169. With “ACAGACGAAGGAGCCGCAAAGAAGTTATTAAGGAATTAATAATCCCTCAATATAAATATCTCTCACTTATTTAAA”, the “cleaved RNA product abundance” value under setting [2] worked out at 0.103 and the “cleaved RNA product abundance” value under setting [1] came out at 0.137. For the sequence “ACAGACGAAGGAGCCGCAAAGAAGTTATTAAGGAATTATTAATCCCTCAATATAAATATCTCTCACTTATTTAAA”, under setting [1], the “cleaved RNA product abundance” value amounted to 0.203.
